The values below come from patent US20250122280A1, “ANTI-Ly6E ANTIBODIES, IMMUNOCONJUGATES, AND USES THEREOF” (Genentech, Inc., priority 2022, published 2025).

The EC50 (read off the curve) is the concentration that produces a half-maximal response. High values mean a need for much substance, low ones an effect from little substance.

The target in test [1] is T1, Ly6E on cell lines known to express Ly6E (Kuramochi, NCI-H1781, HCC1569x2) (human, UniProt Q16553 21-101).
T1 sequence: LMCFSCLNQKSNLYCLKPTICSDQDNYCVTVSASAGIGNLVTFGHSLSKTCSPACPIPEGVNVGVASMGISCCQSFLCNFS
Put plainly: cell-based or functional assay.

Test [2] addresses T1, Ly6E on cell lines known to express …. Put plainly: flow cytometry on Kuramochi cells. In general terms: A flow cytometer gives signals particle by particle.
Experimental: (§1) Cell lines were cultured as recommended by the ATCC. Prior to staining adherent lines were released by Accutase treatment, all cells were filtered and equilibrated in BD Stain buffer (BSA). […] Samples were fixed in 1% PFA (PBS) prior to analysis. Samples were assessed on a BD LSRFortessa. Following exclusion of dead cells, singlets were assessed for antibody binding using FlowJo software (FIGS. 2A-2C).
Test [3] has the same target. The experiment in a line: flow cytometry on NCI-H1781 cells.
Test [4] shares this target. Put plainly: flow cytometry of Fabs on NCI-H1781 cells.
Experimental: as §1

B1: chimeric (Ch) Ly6E 3A3 ThioMab drug conjugate with SN36325 (antibody, V domains shown)
VH: AVQLVEFGGGLVQPKESLKISCAASGFTFSTVAMHWVRQAPGKGLEWIARIRTKPVNYETYYADSVKGRFTISRDDSKSMVYLQMDNLKTEDAAMYYCSAPNYYDGTYSFAYWGQGTLVTVSS
VL: DIVMTQSPTSISISVGERVTMNCKASQNVGSNVDWYQQKTGQSPELLIYKASNRYTGVPGRFTGSGSGTDFTFTISNLQAEDLAVYYCMQSDTKYTFGAGTKVEIKR
modifications: engineered cysteine carrying the SN36325 (seco-CBI-dimer) linker-drug on heavy and/or light chain; position not stated
With B1, the “potency difference from non-target control, 5 day anti-proliferation assay (CellTiter-Glo), cell line NCl-H1781” value in test [1] is above 400 fold.

B2: chimeric anti-Ly6E antibody clone 3A3 (rat-human chimeric antibody) (antibody, human IgG1, kappa, V domains shown)
VH: AVQLVEFGGGLVQPKESLKISCAASGFTFSTVAMHWVRQAPGKGLEWIARIRTKPVNYETYYADSVKGRFTISRDDSKSMVYLQMDNLKTEDAAMYYCSAPNYYDGTYSFAYWGQGTLVTVSS
VL: DIVMTQSPTSISISVGERVTMNCKASQNVGSNVDWYQQKTGQSPELLIYKASNRYTGVPGRFTGSGSGTDFTFTISNLQAEDLAVYYCMQSDTKYTFGAGTKVEIKR
notes: Rat variable domains on human IgG1/kappa constant regions; also called Ch Ly6E 3A3
Regarding B2, the binding result in test [2] was “binds”.

B3: humanized anti-Ly6E (comprising SEQ ID NOs. 3 and 5) (antibody, human IgG1, kappa, V domains shown)
VH: EVQLVESGGGLVQPGGSLKLSCAASGFTFSTVAMHWVRQASGKGLEWVGRIRTKPVNYETYYADSVKGRFTISRDDSKSTVYLQMNSLKTEDTAVYYCSAPNYYDGTYSFAYWGQGTLVTVSS
VL: DIQMTQSPSSLSASVGDRVTITCKASQNVGSNVDWYQQKPGKAPKLLIYKASNRYTGVPSRFSGSGSGTDFTFTISSLQPEDIATYYCMQSETKYTFGQGTKVEIKR
notes: also called the humanized version; 3A3.v2.D92E
For the molecule B3, in test [3], the “EC50 (read off the curve)” value was around 2 µg/mL.

B4: Fab of humanized anti-Ly6E variant LC D92S (Fab, V domains shown)
VH: EVQLVESGGGLVQPGGSLKLSCAASGFTFSTVAMHWVRQASGKGLEWVGRIRTKPVNYETYYADSVKGRFTISRDDSKSTVYLQMNSLKTEDTAVYYCSAPNYYDGTYSFAYWGQGTLVTVSS
VL: DIQMTQSPSSLSASVGDRVTITCKASQNVGSNVDWYQQKPGKAPKLLIYKASNRYTGVPSRFSGSGSGTDFTFTISSLQPEDIATYYCMQSSTKYTFGQGTKVEIKR
notes: Fab made by proteolysis of the IgG; also called 3A3.v2.D92S
On to B4, for which the “EC50 (read off the curve)” value in test [4] is around 10 nM.

B5: Fab of humanized anti-Ly6E variant LC D92E (Fab, V domains shown)
VH: EVQLVESGGGLVQPGGSLKLSCAASGFTFSTVAMHWVRQASGKGLEWVGRIRTKPVNYETYYADSVKGRFTISRDDSKSTVYLQMNSLKTEDTAVYYCSAPNYYDGTYSFAYWGQGTLVTVSS
VL: DIQMTQSPSSLSASVGDRVTITCKASQNVGSNVDWYQQKPGKAPKLLIYKASNRYTGVPSRFSGSGSGTDFTFTISSLQPEDIATYYCMQSETKYTFGQGTKVEIKR
notes: Fab made by proteolysis of the IgG; also called 3A3.v2.D92E
As to B5, in test [4], the “EC50 (read off the curve)” value was around 10 nM.
